In data set [1] the target is T1, NF90long;NF45 (Mus musculus;Homo sapiens, UniProt Q9Z1X4;Q12905 1-591;1-390, |). Kind of data set: SEC-SAXS; mass photometry; not more than 4 heterodimers per RNA (SAXS); up to 3 by mass photometry; 18-bp complex formation: 30 min on ice, SEC in 20 mM HEPES pH 7.5, 150 mM NaCl, 1 mM DTT; mass photometry at 10-50 nM protein; SAXS and EM buffers not in the material. Conditions: protein: recombinant;recombinant; tags: C-terminal 6xHis (non-cleavable);N-terminal GST, removed with 3C protease; copies: 1;1; blunt. In general terms: Size exclusion chromatography separates by hydrodynamic size, large species first.

Data set [2] deals with T1, NF90long;NF45. In words: quantitative EDC CLMS; 18-bp complex formation: 30 min on ice, SEC in 20 mM HEPES pH 7.5, 150 mM NaCl, 1 mM DTT; mass photometry at 10-50 nM protein; SAXS and EM buffers not in the material. Conditions: protein: recombinant;recombinant; tags: C-terminal 6xHis (non-cleavable);N-terminal GST, removed with 3C protease; copies: 1;1; blunt.
Data set [3] has as its target T1, NF90long;NF45. In words: SEC-SAXS; mass photometry; protein:RNA 2:1 and 4:1; RNA saturated at 4:1; 18-bp complex formation: 30 min on ice, SEC in 20 mM HEPES pH 7.5, 150 mM NaCl, 1 mM DTT; mass photometry at 10-50 nM protein; SAXS and EM buffers not in the material. Conditions: protein: recombinant;recombinant; tags: C-terminal 6xHis (non-cleavable);N-terminal GST, removed with 3C protease; copies: 1;1; S13 is labelled 3'-5' but pairs only if read 5'-3' (18 bp, 7-nt 3' tails).

The target in data set [4] is T1, NF90long;NF45. In words: SEC and EDC cross-linking (SDS-PAGE, CLMS); protein:RNA 1:1 and 2:1; 18-bp complex formation: 30 min on ice, SEC in 20 mM HEPES pH 7.5, 150 mM NaCl, 1 mM DTT; mass photometry at 10-50 nM protein; SAXS and EM buffers not in the material. Conditions: protein: recombinant;recombinant; tags: C-terminal 6xHis (non-cleavable);N-terminal GST, removed with 3C protease; copies: 1;1; blunt.

Four molecules from PMC11952958, “Integrative structural analysis of NF45–NF90 heterodimers reveals architectural rearrangements and oligomerization on binding dsRNA” can be followed below.

B1: 54-bp dsRNA (SAXS) (dsRNA)
RNA 1: UCACUUUCAUAAUGCUGGUCACUUUCAUAAUGCUGGUCACUUUCAUAAUGCUGG
RNA 2: CCAGCAUUAUGAAAGUGACCAGCAUUAUGAAAGUGACCAGCAUUAUGAAAGUGA
As to B1, the binding result with NF90long;NF45 [1] is listed as “binds”.

B2: 25-bp GC-rich dsRNA (CLMS) (dsRNA)
RNA 1: GCCGCGGAGGCCCCGCCGUGGGCCC
RNA 2: GGGCCCACGGCGGGGCCUCCGCGGC
Regarding B2, in the data set with NF90long;NF45 [2], the binding result is reported as “binds”.

B3: 25-bp dsRNA (SAXS) (dsRNA)
RNA 1: UCACUUUCAUAAUGCUGGUCACUUU
RNA 2: CCAGCAUUAUGAAAGUGACCAGCAU
As for B3, the binding result with NF90long;NF45 [3] is “binds”.

B4: 18-bp 2'-fluoro dsRNA (EDC) (XNA)
RNA 1: UCACUUUCAUAAUGCUGG
RNA 2: CCAGCAUUAUGAAAGUGA
modifications: uniform 2'-fluoro (printed beside the top strand; Methods call the duplex 2'-fluorinated)
In the case of B4, in the data set with NF90long;NF45 [4], the binding result was “binds”.
